Consider one protein from patent US20190085039A1 (OSAKA UNIVERSITY, published 2019).

The series deals with the molecule itself. The experiment in a line: size exclusion gel filtration chromatography (Superdex 200 10/30, 20 mM HEPES pH 7.4, 150 mM NaCl); no self-association, elutes as a monomer. Here is the method: The solvent is 20 mM HEPES solution of pH 7.4 containing 150 mM NaCl. The larger the molecular weight/molecular volume, the faster the flow in the column. Therefore, peaks appear on the left side in the figure. The spectra indicated with dotted lines in FIG. 1 show the absorptions of 10 μM DsRed (tetramer), tdTomato (dimer), and mCherry (monomer) in order from the left. […] Since the peak position of mfGFP is almost the same as that of mCherry, it can be said that

B1: monomeric green-yellow fluorescent protein mfGFP (other)
chain: MVSKGEEASGRALFQYPMTSKIELNGEINGKKFKVAGEGFTPSSGRFNMHAYCTTGDLPMSWVVIASPLQYGFHMFAHYPEDITHFFQECFPGSYTLDRTLRMEGDGTLTTHHEYSLEDGCVTSKTTLNASGFDPKGATMTKSFVKQLPNEVKITPHGPNGIRLTSTVLYLKEDGTIQIGTQDCIVTPVGGRKVTQPKAHFLHTQIIQKKDPNDTRDHIVQTELAVAGNLWHGMDELYK
notes: It was purified with an N-terminal polyhistidine tag; not shown: N-terminal polyhistidine tag from the bacterial expression vector pRSETB
On to B1, for which the binding result is “no binding (tested: 10 µM)”.
